Experiments:
[1] = target: pRb-BSA 1x peptide-protein conjugate (bovine); experiment: RPA, competition: +recombinant protein 100 nM (not named)
[2] = target: ERK1 (p44), human, Cell Signaling Technology 7416 (human) (UniProt P27361); experiment: as above
[3] = target: Histone H3 recombinant protein, human, Upstate 14-494 (human) (UniProt P68431); experiment: as above
[4] = target: pErk1/2-BSA 2.7x peptide-protein conjugate (human; bovine); experiment: as above
[5] = target: ERK1 (p44) active (GST tagged), human, Invitrogen PV 3311 (human) (UniProt P27361); experiment: as above
[6] = target: Erk1-BSA 2.7x peptide-protein conjugate (human; bovine); experiment: as above
Chain of Erk1-BSA 2.7x peptide-protein conjugate (human; bovine) (peptide, as listed by the source limits assumed, chain 1 of 2): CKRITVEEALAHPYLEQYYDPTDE
Chain of Erk1-BSA 2.7x peptide-protein conjugate (human; bovine) (P02769 25-607 limits assumed, chain 2 of 2): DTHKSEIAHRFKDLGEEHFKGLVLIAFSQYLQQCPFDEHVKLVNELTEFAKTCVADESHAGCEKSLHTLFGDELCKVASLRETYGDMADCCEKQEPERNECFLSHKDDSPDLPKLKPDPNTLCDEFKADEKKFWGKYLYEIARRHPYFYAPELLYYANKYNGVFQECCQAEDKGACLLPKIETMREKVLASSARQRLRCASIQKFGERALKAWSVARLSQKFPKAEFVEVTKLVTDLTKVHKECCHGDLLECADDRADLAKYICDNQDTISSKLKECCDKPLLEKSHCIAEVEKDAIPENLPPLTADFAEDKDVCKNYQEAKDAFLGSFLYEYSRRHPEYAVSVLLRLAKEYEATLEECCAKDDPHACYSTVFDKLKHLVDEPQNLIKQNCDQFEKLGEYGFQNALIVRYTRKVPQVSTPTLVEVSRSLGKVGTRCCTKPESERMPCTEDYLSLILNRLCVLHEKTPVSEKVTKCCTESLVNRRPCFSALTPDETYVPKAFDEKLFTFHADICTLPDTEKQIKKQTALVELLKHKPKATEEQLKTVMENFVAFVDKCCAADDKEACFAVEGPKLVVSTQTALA

[7] = target: Histone H3 recombinant protein, calf, Roche 11 034 758 001 (calf) (UniProt P68432); experiment: as above
[8] = target: ERK1 (p42) active (phospho), human, Active Motif 31 152 (human) (UniProt P27361); experiment: as above
[9] = target: Histone H3-BSA 2.7x peptide-protein conjugate (bovine); experiment: as above
Chain of Histone H3-BSA 2.7x peptide-protein conjugate (bovine) (P02769 25-607 limits assumed): as the sequence (P02769 25-607 limits assumed, chain 2 of 2) above

[10] = target: ERK1 (p44) inactive (GST tagged), human, Invitrogen PV 3312 (human) (UniProt P27361); experiment: as above
[11] = target: pRb recombinant protein, human, Active Motif 31 128 (human) (UniProt P06400); experiment: as above
Chain of UniProt P06400 (P06400 whole entry): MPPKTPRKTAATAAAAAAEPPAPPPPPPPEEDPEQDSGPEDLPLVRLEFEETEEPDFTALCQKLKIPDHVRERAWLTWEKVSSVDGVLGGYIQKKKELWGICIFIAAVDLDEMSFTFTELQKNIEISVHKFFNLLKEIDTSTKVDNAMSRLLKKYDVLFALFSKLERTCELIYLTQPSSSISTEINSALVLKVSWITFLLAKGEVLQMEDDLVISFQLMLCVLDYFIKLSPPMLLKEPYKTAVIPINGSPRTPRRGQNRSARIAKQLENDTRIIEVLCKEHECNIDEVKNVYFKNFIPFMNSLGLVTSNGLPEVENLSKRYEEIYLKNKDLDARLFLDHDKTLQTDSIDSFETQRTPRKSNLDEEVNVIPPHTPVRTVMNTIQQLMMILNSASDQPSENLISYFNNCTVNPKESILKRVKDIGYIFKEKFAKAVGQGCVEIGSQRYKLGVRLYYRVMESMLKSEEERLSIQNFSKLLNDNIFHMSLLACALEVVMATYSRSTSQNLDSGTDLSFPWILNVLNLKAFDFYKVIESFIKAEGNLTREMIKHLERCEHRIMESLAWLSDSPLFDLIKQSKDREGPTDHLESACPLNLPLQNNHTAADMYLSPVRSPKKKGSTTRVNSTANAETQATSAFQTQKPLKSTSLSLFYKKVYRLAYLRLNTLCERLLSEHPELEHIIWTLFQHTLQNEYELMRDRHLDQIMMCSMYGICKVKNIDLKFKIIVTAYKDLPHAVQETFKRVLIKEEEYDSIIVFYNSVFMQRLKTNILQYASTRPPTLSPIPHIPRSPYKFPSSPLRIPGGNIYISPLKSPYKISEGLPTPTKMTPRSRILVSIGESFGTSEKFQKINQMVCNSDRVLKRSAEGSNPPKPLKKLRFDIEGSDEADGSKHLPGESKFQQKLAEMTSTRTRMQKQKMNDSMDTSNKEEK

[12] = target: ERK2 (p42), human, Biosource PHO 0104 (human) (UniProt P28482); experiment: as above
Chain of UniProt P28482 (P28482 2-360 limits assumed): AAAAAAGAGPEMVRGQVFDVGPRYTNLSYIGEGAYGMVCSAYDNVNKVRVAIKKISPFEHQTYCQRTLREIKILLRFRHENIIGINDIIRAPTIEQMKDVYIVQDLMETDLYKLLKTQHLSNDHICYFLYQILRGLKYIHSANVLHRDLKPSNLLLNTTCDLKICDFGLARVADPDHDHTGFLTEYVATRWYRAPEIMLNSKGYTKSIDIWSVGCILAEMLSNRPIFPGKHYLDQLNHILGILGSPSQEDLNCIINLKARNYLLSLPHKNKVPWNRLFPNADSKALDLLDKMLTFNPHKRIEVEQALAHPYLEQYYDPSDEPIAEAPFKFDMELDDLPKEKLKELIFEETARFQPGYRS

[13] = target: pRb-BSA 1x peptide-protein conjugate (bovine); experiment: RPA, competition: +free Erk1 peptide 1000 nM
[14] = target: ERK1 (p44), human, Cell Signaling Technology 7416 (human) (UniProt P27361); experiment: RPA, competition: +free Erk1 peptide 1000 nM
[15] = target: Histone H3 recombinant protein, human, Upstate 14-494 (human) (UniProt P68431); experiment: RPA, competition: +free Erk1 peptide 1000 nM
[16] = target: pErk1/2-BSA 2.7x peptide-protein conjugate (human; bovine); experiment: RPA, competition: +free Erk1 peptide 1000 nM
[17] = target: ERK1 (p44) active (GST tagged), human, Invitrogen PV 3311 (human) (UniProt P27361); experiment: RPA, competition: +free Erk1 peptide 1000 nM
[18] = target: Erk1-BSA 2.7x peptide-protein conjugate (human; bovine); experiment: RPA, competition: +free Erk1 peptide 1000 nM
[19] = target: Histone H3 recombinant protein, calf, Roche 11 034 758 001 (calf) (UniProt P68432); experiment: RPA, competition: +free Erk1 peptide 1000 nM
[20] = target: ERK1 (p42) active (phospho), human, Active Motif 31 152 (human) (UniProt P27361); experiment: RPA, competition: +free Erk1 peptide 1000 nM
[21] = target: Histone H3-BSA 2.7x peptide-protein conjugate (bovine); experiment: RPA, competition: +free Erk1 peptide 1000 nM
[22] = target: ERK1 (p44) inactive (GST tagged), human, Invitrogen PV 3312 (human) (UniProt P27361); experiment: RPA, competition: +free Erk1 peptide 1000 nM
[23] = target: pRb recombinant protein, human, Active Motif 31 128 (human) (UniProt P06400); experiment: RPA, competition: +free Erk1 peptide 1000 nM
[24] = target: ERK2 (p42), human, Biosource PHO 0104 (human) (UniProt P28482); experiment: RPA, competition: +free Erk1 peptide 1000 nM
[25] = target: pRb-BSA 1x peptide-protein conjugate (bovine); experiment: RPA, normal assay
[26] = target: ERK1 (p44), human, Cell Signaling Technology 7416 (human) (UniProt P27361); experiment: RPA, normal assay
[27] = target: Histone H3 recombinant protein, human, Upstate 14-494 (human) (UniProt P68431); experiment: RPA, normal assay
[28] = target: ERK1 (p44) active (GST tagged), human, Invitrogen PV 3311 (human) (UniProt P27361); experiment: RPA, normal assay
[29] = target: Erk1-BSA 2.7x peptide-protein conjugate (human; bovine); experiment: RPA, normal assay
[30] = target: Histone H3 recombinant protein, calf, Roche 11 034 758 001 (calf) (UniProt P68432); experiment: RPA, normal assay
[31] = target: ERK1 (p42) active (phospho), human, Active Motif 31 152 (human) (UniProt P27361); experiment: RPA, normal assay
[32] = target: Histone H3-BSA 2.7x peptide-protein conjugate (bovine); experiment: RPA, normal assay
[33] = target: ERK1 (p44) inactive (GST tagged), human, Invitrogen PV 3312 (human) (UniProt P27361); experiment: RPA, normal assay
[34] = target: pRb recombinant protein, human, Active Motif 31 128 (human) (UniProt P06400); experiment: RPA, normal assay
[35] = target: ERK2 (p42), human, Biosource PHO 0104 (human) (UniProt P28482); experiment: RPA, normal assay

Chain of pErk1/2-BSA 2.7x peptide-protein conjugate (human; bovine) (P02769 25-607 limits assumed): as the sequence (P02769 25-607 limits assumed, chain 2 of 2) above
Chain of pRb-BSA 1x peptide-protein conjugate (bovine) (P02769 25-607 limits assumed): as the sequence (P02769 25-607 limits assumed, chain 2 of 2) above

maximum standard curve signal [1] | maximum standard curve signal [2] | maximum standard curve signal [3] | maximum standard curve signal [4] | maximum standard curve signal [5] | maximum standard curve signal [6] | maximum standard curve signal [7] | maximum standard curve signal [8] | maximum standard curve signal [9] | maximum standard curve signal [10] | maximum standard curve signal [11] | maximum standard curve signal [12] | maximum standard curve signal [13] | maximum standard curve signal [14] | maximum standard curve signal [15] | maximum standard curve signal [16] | maximum standard curve signal [17] | maximum standard curve signal [18] | maximum standard curve signal [19] | maximum standard curve signal [20] | Substance | other results
0.1 RFI | 0.1 RFI | 0.1 RFI | 0.09 RFI | 0.39 RFI | 0.29 RFI | 0.08 RFI | 0.11 RFI | 0.12 RFI | 0.59 RFI | 0.09 RFI | 0.16 RFI | 0.01 RFI | < 0.01 RFI | < 0.01 RFI | 0.01 RFI | 0.02 RFI | 0.01 RFI | < 0.01 RFI | < 0.01 RFI | p44/42 MAPK (Erk1/2) antibody, Cell Signaling Technology #4695, rabbit monoclonal | maximum standard curve signal [21]: 0.01 RFI; maximum standard curve signal [22]: 0.04 RFI; maximum standard curve signal [23]: < 0.01 RFI; maximum standard curve signal [24]: 0.01 RFI; maximum standard curve signal [25]: 0.01 RFI; maximum standard curve signal [26]: 0.04 RFI; maximum standard curve signal [27]: 0.01 RFI; maximum standard curve signal [28]: 5.17 RFI; maximum standard curve signal [29]: 2.77 RFI; maximum standard curve signal [30]: 0.01 RFI; maximum standard curve signal [31]: 0.22 RFI; maximum standard curve signal [32]: 0.01 RFI; maximum standard curve signal [33]: 7.12 RFI; maximum standard curve signal [34]: 0.01 RFI; maximum standard curve signal [35]: 1.51 RFI
0.04 RFI | 0.03 RFI | 0.03 RFI | 0.04 RFI | 0.11 RFI | 0.12 RFI | 0.03 RFI | 0.03 RFI | 0.1 RFI | 0.19 RFI | 0.04 RFI | 0.07 RFI | 0.01 RFI | 0.03 RFI | < 0.01 RFI | 0.01 RFI | 4.65 RFI | 0.06 RFI | < 0.01 RFI | 0.23 RFI | p44/42 MAPK (Erk1/2) antibody, Cell Signaling Technology #9102, rabbit polyclonal | maximum standard curve signal [21]: 0.07 RFI; maximum standard curve signal [22]: 7.28 RFI; maximum standard curve signal [23]: < 0.01 RFI; maximum standard curve signal [24]: 0.91 RFI; maximum standard curve signal [25]: 0.01 RFI; maximum standard curve signal [26]: 0.05 RFI; maximum standard curve signal [28]: 7.2 RFI; maximum standard curve signal [29]: 2.44 RFI; maximum standard curve signal [31]: 0.36 RFI; maximum standard curve signal [32]: 0.08 RFI; maximum standard curve signal [33]: 8.96 RFI; maximum standard curve signal [35]: 1.51 RFI

Source: patent US20120220489A1
